# Measured values as given in paper PMC4084830 (Nature structural & molecular biology, 2013).
# Key:
# [1] = biological target: recombinant mouse glucokinase (GK) isoform 1 (mouse) (UniProt P52792)
# [2] = biological target: T1, glucokinase (GK) (Mus musculus, UniProt P52792); experiment: Steady-state kinetics of recombinant wild-type mouse glucokinase; format: biochemical; details: vs vehicle
# T1 sequence (P52792 1-465): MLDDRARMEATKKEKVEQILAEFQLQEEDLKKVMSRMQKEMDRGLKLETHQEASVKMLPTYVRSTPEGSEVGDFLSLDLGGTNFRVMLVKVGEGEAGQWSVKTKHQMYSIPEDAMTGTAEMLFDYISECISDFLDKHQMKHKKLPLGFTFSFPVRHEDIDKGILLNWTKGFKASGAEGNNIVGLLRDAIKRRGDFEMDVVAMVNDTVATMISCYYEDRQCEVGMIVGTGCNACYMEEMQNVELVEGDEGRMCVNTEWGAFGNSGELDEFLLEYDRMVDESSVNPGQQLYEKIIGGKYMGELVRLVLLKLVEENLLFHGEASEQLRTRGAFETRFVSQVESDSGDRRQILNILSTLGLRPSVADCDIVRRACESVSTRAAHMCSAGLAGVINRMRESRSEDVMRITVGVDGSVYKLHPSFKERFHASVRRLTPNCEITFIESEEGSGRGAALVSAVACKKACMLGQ
molecule,measurement,setting,value
BAD SAHBA (S118pS) (peptide),"GK Vmax (% of vehicle), G6PDH-coupled assay with 5 μM SAHB and 7.5 nM GK, 37 °C",[1],129 % veh.
BAD SAHBA (S118D) (peptide),"GK Vmax (% of vehicle), G6PDH-coupled assay with 5 μM SAHB and 7.5 nM GK, 37 °C",[1],144 % veh.
CS(=O)(=O)c1ccc([C@@H](CC2CCCC2)C(=O)Nc2nccs2)cc1 [RO0281675],effect on GK kinetic profile (in words),[2]; 5 μM BAD SAHBs and/or 3 μM RO0281675,no significant effect on the Hill coefficient
same,increase in Vmax,[2]; 5 μM BAD SAHB or 3 μM RO0281675,approximately 40%
BAD SAHBA (S118L) (peptide),"GK Vmax (% of vehicle), G6PDH-coupled assay with 5 μM SAHB and 7.5 nM GK, 37 °C",[1],89.6 % veh.
